Data on two molecules can be found in patent publication US20260055195A1 (COUNCIL OF THE QUEENSLAND INSTITUTE OF MEDICAL RESEARCH, published 2026).

The target of assay [1] is T1, EphA3 expressed on tumour cell lines (LK63, U251, D270) (UniProt P29320 21-983).
T1 construct: whole, on cells; also called EphA3 on LK63 cells; EphA3 on U251 cells
T1 sequence (looked up): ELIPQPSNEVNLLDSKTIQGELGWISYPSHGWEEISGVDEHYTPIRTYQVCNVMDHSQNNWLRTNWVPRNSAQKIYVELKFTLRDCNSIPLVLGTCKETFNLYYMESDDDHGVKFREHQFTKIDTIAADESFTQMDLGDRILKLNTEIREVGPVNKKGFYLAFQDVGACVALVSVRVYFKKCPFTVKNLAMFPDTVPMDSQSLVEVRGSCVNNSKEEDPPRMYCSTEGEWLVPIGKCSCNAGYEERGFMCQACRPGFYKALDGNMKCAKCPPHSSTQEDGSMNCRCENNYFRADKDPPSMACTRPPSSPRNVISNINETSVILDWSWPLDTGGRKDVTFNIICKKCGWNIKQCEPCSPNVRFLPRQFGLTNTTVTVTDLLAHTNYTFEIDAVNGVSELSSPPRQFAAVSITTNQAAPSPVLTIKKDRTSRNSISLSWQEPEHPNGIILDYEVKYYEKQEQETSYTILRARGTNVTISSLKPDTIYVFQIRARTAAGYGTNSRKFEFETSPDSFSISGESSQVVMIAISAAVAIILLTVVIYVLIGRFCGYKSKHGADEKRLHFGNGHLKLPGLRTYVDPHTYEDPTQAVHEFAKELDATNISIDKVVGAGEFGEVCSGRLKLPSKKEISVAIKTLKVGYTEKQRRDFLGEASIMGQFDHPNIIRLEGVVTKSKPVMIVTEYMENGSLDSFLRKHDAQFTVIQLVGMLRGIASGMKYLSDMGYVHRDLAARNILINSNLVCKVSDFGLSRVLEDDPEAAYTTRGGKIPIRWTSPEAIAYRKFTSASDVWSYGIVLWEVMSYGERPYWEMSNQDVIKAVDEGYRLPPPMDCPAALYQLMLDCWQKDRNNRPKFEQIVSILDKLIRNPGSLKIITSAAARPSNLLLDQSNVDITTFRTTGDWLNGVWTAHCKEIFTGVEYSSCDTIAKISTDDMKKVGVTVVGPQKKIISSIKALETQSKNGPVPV
As to the kind of experiment: flow cytometry on glioma cell lines D270 and U251.

Assay [2] addresses T1, EphA3 expressed on tumour cell lines …. Description: flow cytometry, subclone supernatant on LK63 cells.

B1: Clone 3C3-1 anti-EphA3 monoclonal antibody (antibody, V domains shown)
VH: QVQLQQSGAELARPGASVKMSCKSSGYTFTIYTIHWVKQRPGQGLEWIGYINPSSDYTNYNQKFKDKATLTADKSSTTAYMQLSSLTSEDSAVYYCVREGAYGNYDFAMDYWGQGTSVTVSS
VL: DVLMTQTPLSLPVSLGDQASISCRSSQNIVHNNGNTYLEWYLQKPGQSPKLLIYKVSNRFSGVPDRFSGSGSGTDFTLKISRVEAEDLGVYYCFQTSHVPYTFGGGTKLEIK
notes: Mouse hybridoma monoclonal, screened as subclone supernatant
As for B1, the binding result in assay [1] was “binds”.

B2: Clone 2D4-1 anti-EphA3 monoclonal antibody (antibody, V domains shown)
VH: QVHLKESGPGLVAPSQSLSITCTVSGFSLTGYGVNWIRQPPGKNLEWLGMIWGDGSTDYNSVLKSRLSISKDNAKSQVFLEMNSLQTDDTANYYCARDRGISYYYAMDYWGQGTSVTVSS
VL: DIVLTQSPASLAVSLGQRATISCRASKSVSASGYSYLHWYQQKPGQPPKLLIFLAYNLGSGVPARFSGSGAGTDFTLNIHPVEEEDAATYYCQHSREFPLTFGAGTKLELK
notes: as for B1
As for B2, the binding result in assay [2] is “binds”.
